Measured values published in the supplement of paper PMC9170038.

Test system: MS2 coat protein
Test: apparent KD of MS2 coat protein; designed switch direction (-1 OFF switch, 1 ON switch): -1; higher = weaker reporter binding
How it was run: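 An oligonucleotide input, 200 uM small-molecule ligand, or no input was present during titration of SNAP-549-labelled MS2 coat protein, which was doubled from 0.7 or 1.5 nM to 3 µM. Designed RNA switches had been transcribed on Illumina chips by stalled E. coli RNA polymerase. Apparent KD per design is the median over clusters of curves fitted to normalised cluster fluorescence.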

[1] = input ligand: microRNA oligo, concentration not stated
[2] = Eterna round: R95, input ligand: microRNA oligo, concentration not stated

Row | Sequence | apparent KD of MS2 coat protein (input ligand: FMN 200 uM) [µM] | apparent KD of MS2 coat protein [1] [µM] | apparent KD of MS2 coat protein (input ligand: none) [µM] | apparent KD of MS2 coat protein [2] [µM]
1 | AUUAUACAUGUAGGAUAUCUGCACGUGUAGUGCAGAGAAGGACAUGAGGAUCACCCAUGUAGAUCAAUAAUAAUUAAUUUAAUU [ENG1/6-B3] (Eterna round: R96, puzzle: Exclusion NG 1) | 0.184 | 0.0968 | 0.104 | 
2 | UUGUGCACGCUGCGAUCCUACAUGAGGAUCACCCAUGUGGUCUGGUGGCGUGGGUCACCGGACUUGGCUCGUCUUGG [salish99_S_TOV1_R5_076] (Eterna round: R97, puzzle: Sensor, turn-off variant 1) | 0.126 |  | 0.138 | 
3 | GCCUACGCAGGAUAUGUCCAGGGAAACAUGAGGAUCACCCAUGUGGAGUGGACUCGGGUUGCAGAAGGGCGGGCAC [Eternabot (Original) Solution 3] (Eterna round: R97, puzzle: Exclusion 5) | 0.0212 |  | 0.016 | 
4 | GUGAUCUAUCAUGUAAUAAACAUGAGGAUCACCCAUGUAGACAAGUUUUUUGCUCGUCUUAUAAUAAGAUAGAUCAC [Antenna 15 - Jieux - Sensor, turn-off variant 1] (Eterna round: R97, puzzle: Sensor, turn-off variant 1) | 0.0163 |  | 0.0159 | 
5 | CGAUGAGGUGUGAGGAUAUCGUGUUCGAAAGAACGUGAGAAGGCACAUGAGGAUCACCCAUGUUAACCUUGUCG [Omei Ex4B A13] (Eterna round: R97, puzzle: Brourd's mod of Exclusion 4) | 0.0115 |  | 0.0132 | 
6 | CUUUUGUGAGGAUAUCAGUAGUAAAAAAAUAAAAUUACUACUGAGAAGGUACAUGAGGAUCACCCAUGUUCCUC [salish99_ex4_r3_031] (puzzle: Exclusion 4) |  |  |  | 0.0151
7 | CUUCGUAUAGAGGAUAUAGGUUACCUCGGUAUCCUAGAAGGCUGUACAUGAGGAUCACCCAUGUACUUCAGAUC [Exclusion 6 - B - 13:b] (puzzle: Exclusion 6) |  |  |  | 0.0127
8 | GAGUGACAUGAGGAUCACCCAUGUGAGGAUAUCGGACGGACCAAAUUAACAAUAAAUGCGAGAAGGCACAUCGG [Exclusion 1 V13] (puzzle: Exclusion 1) |  |  |  | 0.0554
9 | CUCCGGCGUGUAGGAUAUGGUUCCGUUUCGGUUCCAGAAGGACAUGAGGAUCACCCAUGUGCCUGUCGUCGGUCGUCACCGGGC [salish99_ExNG1_r04_217] (Eterna round: R96, puzzle: Exclusion NG 1) | 0.0178 | 0.0103 | 0.0154 | 
10 | UUUUUGUGAGGAUAUCAGUAGUAGAACAAUAGUACUACUACUGAGAAGGCACAUGAGGAUCACCCAUGUUCCUU [Fiskers Ex 4 Super stable 44 mod 12] (puzzle: Exclusion 4) |  |  |  | 0.0149
11 | CCCUCACAUGAGGAUCACCCAUGUAAGGAUAUCUUCGCUUUGACGUUGUUGAAUGCGAAGAGAAGGUGCACGGC [jl-ex1-4.71 ViennaUCT mod] (Eterna round: R97, puzzle: Exclusion 1) | 0.043 |  | 0.0209 | 
12 | GCAGCGUAUGUAGGAUAUCGGUCAGUUUCUGAUCGAGAAGGACAUGAGGAUCACCCAUGUAUAUUCUAGCGUGAGCUAGGCUGC [JL ENG1 3.70] (Eterna round: R96, puzzle: Exclusion NG 1) |  | 0.0143 |  | 
13 | CGUCUGUCAGGAUAUACUUACGUAGACAUGAGGAUCACCCAUGUGACGUGGGACUAGUGAGUAGAAGGGACGAACA [EX5 #74] (Eterna round: R97, puzzle: Exclusion 5) | 0.0684 |  | 0.0467 | 
14 | CAACCUCACAACCGUUAAAACAUGAGGAUCACCCAUGUGCCAUAACGGCGCAUGAUCGAGCUAGGCCCGUCCAUGCA [Razaxe] (Eterna round: R96, puzzle: Sensor v2, turn-off variant) | 0.0232 | 0.0188 | 0.0261 | 
15 | UUCCUCACUUCUUUGUCUCACAUGAGGAUCACCCAUGUAAUAUAGGAUAUGCUUAGUAUUUCUAUGCAGAAGGAUAUUAGUUUU [JR_ExcNG3_Sub086] (Eterna round: R96, puzzle: Exclusion NG 3) | 0.111 | 0.0273 | 0.0323 | 
16 | AGCGAGCUAGGAUAUACAUGAGGAUCACCCAUGUCUUUUUAGUACUACGGUGGAAGAUGUAGAAGGAGUGAGAA [Soisza] (puzzle: Exclusion 3) |  |  |  | 0.0923
17 | GGAUAUAGGCGAGGAUAUACGCACCACUAACUAGUAGAAGGCGCACAUGAGGAUCACCCAUGUGAUUUCUCAAUAUGAUACACG [Prohibition 71 - Jieux - Exclusion NG 1] (Eterna round: R96, puzzle: Exclusion NG 1) | 0.218 | 0.107 | 0.183 | 

Row | Sequence | apparent KD of MS2 coat protein (input ligand: FMN 200 uM) [µM] | apparent KD of MS2 coat protein [1] [µM] | apparent KD of MS2 coat protein (input ligand: none) [µM] | apparent KD of MS2 coat protein [2] [µM]
18 | GAGAAGGUAGGAUAUACGAAUAAAUAGGGUAGGAAGAAGACACAUGAGGAUCACCCAUGUAGAAGGACCAAGAU [Mat - Exclusion 2 - Mod of my Tesla design - D35] (puzzle: Exclusion 2) |  |  |  | 0.0181
19 | UCACGGGUUUGAGGAUAUAUAUUUAUUAUUUUAAUAGAAGGCAAAGAGAUAGUUUUUUCACUAUACAUGAGGAUCACCCAUGUU [JR_ExcNG1_Sub087] (Eterna round: R96, puzzle: Exclusion NG 1) |  | 0.0276 |  | 
20 | CUUUAGACAGGAUAUACUUCCGUGGUCGUAGAGUUACACAGACAUGAGGAUCACCCAUGUAGAAGGGUCAAGCU [Eternabot (L2) Solution 94] (Eterna round: R97, puzzle: Exclusion 2) | 0.0762 |  | 0.0847 | 
21 | GUGCGACAUGAGGAUCACCCAUGUCAGGAUAUAUAGAACGAUAACGAAAUCGUUAUCGGUAGAAGGGACGGUGA [Eternabot (L1) Solution 48] (Eterna round: R97, puzzle: Exclusion 1) | 0.0186 |  | 0.0214 | 
22 | UUAAAUCAUGUAGGAUAUGCGUGGCGAAGCUAUGCAGAAGGACAUGAGGAUCACCCAUGUGCUAGCGUCUGCGUACAGAUGCAA [JL ENG1 1.11] (Eterna round: R96, puzzle: Exclusion NG 1) | 0.189 | 0.0652 | 0.0767 | 
23 | GGAUAAAACCGAGGAUAUACGUAUCACUAACGAGUAGAAGGCGGACAUGAGGAUCACCCAUGUGAGUUCUCAAUAAGAAACACG [Prohibition 64 - Jieux - Exclusion NG 1] (Eterna round: R96, puzzle: Exclusion NG 1) | 0.519 | 0.0851 | 0.174 | 
24 | CGGCUGUGAGGAUAUGCCAGGCCGGGCACUCCGCCGCCAGCGCAGAAGGCACAUGAGGAUCACCCAUGUCAAAG [Eternabot (L2) Solution 82] (Eterna round: R97, puzzle: Exclusion 4) | 0.0275 |  | 0.0239 | 
25 | AGGAUCCUAGGAUAUGCUGGGUAUCGCUGUCGGAGGGACAGACAUGAGGAUCACCCAUGUAGAAGGAGGCGCUC [Eternabot (L1) Solution 5] (Eterna round: R97, puzzle: Exclusion 2) | 3.68 |  | 0.667 | 
26 | GUCGUGUUAGGAUAUUGGCCUUUUAGAUGCACUAAGUGAGACGAGAAGGGACAUGAGGAUCACCCAUGUAAUAA [Eternabot (L1) Solution 69] (Eterna round: R97, puzzle: Exclusion 4) | 0.0474 |  | 0.0364 | 
27 | AAUAAUCAUGUAGGAUAUGCGUGGCAAAGCUAUGCAGAAGGACAUGAGGAUCACCCAUGUUCUAGCGUCUGAGUACAGAUGCUA [Mat - Exclusion NG 1 - Mod of JL - D81] (Eterna round: R96, puzzle: Exclusion NG 1) | 0.399 | 0.0321 | 0.0474 | 
28 | AAUAAUCAUGUAGGAUAUGCGUGGCAAAGCUAUGCAGAAGGACAUGAGGAUCACCCAUGUUCUAGCGUCUGAGAACAGAUGCUA [Mat - Exclusion NG 1 - Mod of JL - D82] (Eterna round: R96, puzzle: Exclusion NG 1) | 0.384 | 0.0302 | 0.0415 | 
29 | UAUUAGCAAGCGAGAUCCCACAUGAGGAUCACCCAUGUGCAUCCAGAAUUACUGGGUGCAAAAGCUCGUCUUAUAUA [Winner reversed engineered 2] (Eterna round: R97, puzzle: Sensor, turn-off variant 1) | 0.0624 |  | 0.0581 | 
30 | ACAUGAGGAUCACCCAUGUUAUGUUGGGUACUAAAUUAUUCGUAGGAUAUCGUAGCUAGUUUGUGCGAGAAGGACGCAUUUUUU [JR_ExcNG3_Sub059] (Eterna round: R96, puzzle: Exclusion NG 3) | 0.205 | 0.229 | 0.273 | 
31 | AGCAGACGAGGAUAUAGAUUUAGAUACAUGAGGAUCACCCAUGUAUAUAUGUAUUUAGAUUUAGAAGGCGUCUGCU [E5/15-A1] (Eterna round: R97, puzzle: Exclusion 5) | 0.222 |  | 0.219 | 
32 | ACACGGAUAGGAUAUACUUGAGGAUCACCCAAGUGGAACCGCUUGUCCCGAUCCUAGAGUAGAAGGAUCAAAUA [Anusxebiat] (Eterna round: R97, puzzle: Exclusion 3) | 0.149 |  | 0.0443 | 
33 | AUCAUAUAACAAGCUUUUUACAUGAGGAUCACCCAUGUGGUUUUUAGUCUUAUCCCGGGCCCGAUAUCGGGCCCGGG [-33.4, -54.7, A 22%] (Eterna round: R97, puzzle: Sensor, turn-off variant 1) | 0.0228 |  | 0.0242 | 
